This experiment has as its target T1, GST-MYB44 (Arabidopsis, UniProt Q9FDW1 1-305).
T1 construct: MYB44, Arabidopsis; the CDS ligated to pGEX-KG; source: E. coli, purified (Glutathione Sepharose resin)
Kind of experiment: pull-down; GST-MYB44 as bait, GST as control; purified proteins from E. coli incubated overnight at 4°C, washed four times, western blot. Particulars: both partners purified. A general note: In western blotting, separated proteins are transferred to a membrane and probed.

T1 sequence (Q9FDW1 whole entry): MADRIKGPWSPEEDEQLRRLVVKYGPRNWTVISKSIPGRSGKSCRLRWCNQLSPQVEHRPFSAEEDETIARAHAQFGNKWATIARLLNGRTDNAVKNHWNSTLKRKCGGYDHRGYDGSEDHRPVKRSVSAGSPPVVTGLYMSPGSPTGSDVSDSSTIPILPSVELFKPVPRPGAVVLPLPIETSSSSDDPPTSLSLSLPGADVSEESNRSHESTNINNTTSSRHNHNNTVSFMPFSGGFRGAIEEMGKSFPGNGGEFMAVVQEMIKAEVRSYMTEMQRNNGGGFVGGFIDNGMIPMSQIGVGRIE

B1: His-HDT4 (enzyme, Arabidopsis, UniProt Q9M4T3 1-203, looked up)
chain: MEFWGIEIKPGKPFKVIQKDGFMVHASQVTLGDVEKVKKDETFAVYVKIGDDENGFMIGNLSQKFPQFSIDLYLGHEFEISHNSTSSVYLIGYRTFDAFDELDEEIDSDSELDEYMEQQIAALPQNEINPEEDDESDSDEMGLDEDDDSSDEEDVEAEAPLKVAPPSKKMPNGAFEIAKGGKKNKSSGGKKRCPFPCGPSCKK
notes: HDT4, histone deacetylase of the HD2 family, Arabidopsis; the CDS ligated to pET28a; source: E. coli, purified (Ni-NTA agarose resin)
In the case of B1, the binding result is “binds”.

B2: MBP-ENAP1 (natural protein, Arabidopsis, UniProt Q8VZI9 1-249, looked up)
chain: METTPETQSKTHRLPAGREDWWSEDATATLIEAWGDRYVNLNRGNLRQNDWKEVADAVNSSHGNGRPKTDVQCKNRIDTLKKKYKTEKAKPLSNWCFFDRLDFLIGPVMKKSSGAVVKSALMNPNLNPTGSKSTGSSLDDDDDDDDDDEEDDDDAGDWGFVVRKHRKVEDVDSSEGSAFRELARSILKLGEAFERIEGKKQQMMIELEKQRMEVAKELELQRMNMLMEMQLELEKSKLGKRRAASGKKL
notes: ENAP1, Arabidopsis, AT3G11100; the CDS ligated to pVP13 (His tag removed); source: E. coli, purified (Amylose resin)
B2: the binding result is on record as “binds”.

Values taken from paper PMC9681084, “MYB44-ENAP1/2 restricts HDT4 to regulate drought tolerance in Arabidopsis” (PLOS Genetics, 2022).
